To fix the notation:
B1: 217806 (designed binder, part only; not given: ED-B binding domain, linkers, tags, part only)
fusion protein, part: LAEAKVLALKELDKYGISNYYKNLINNAKTVEGVKALKEAIVAA
B2: 215675 (designed binder, part only; not given: ED-B binding domain, linkers, tags, part only)
fusion protein, part: B1 fusion protein, part with V31I, K35E, E39D, V42L
B3: 215674 (designed binder, part only; not given: ED-B binding domain, linkers, tags, part only)
fusion protein, part: B1 fusion protein, part with V31I, K35E
B4: 215670 (designed binder, part only; not given: ED-B binding domain, linkers, tags, part only)
fusion protein, part: B1 fusion protein, part with V31I
B5: 215663 (designed binder, part only; not given: ED-B binding domain, linkers, tags, part only)
fusion protein, part: B1 fusion protein, part with V31I, E39A
B6: 215671 (designed binder, part only; not given: ED-B binding domain, linkers, tags, part only)
fusion protein, part: B1 fusion protein, part with V31I, E39D, A40E
B7: 215661 (designed binder, part only; not given: ED-B binding domain, linkers, tags, part only)
fusion protein, part: B1 fusion protein, part with V31I, E39D, A40Q
B8: 215673 (designed binder, part only; not given: ED-B binding domain, linkers, tags, part only)
fusion protein, part: B1 fusion protein, part with V31I, K35E, E39D
B9: 215665 (designed binder, part only; not given: ED-B binding domain, linkers, tags, part only)
fusion protein, part: B1 fusion protein, part with V31I, E39A, A40Q, V42L
B10: 215680 (designed binder, part only; not given: ED-B binding domain, linkers, tags, part only)
fusion protein, part: LAEAKVLALKELDKYGISNYYKNLIDKAKTIEGVEALKDAILAA
B11: 219089 (designed binder, part only; not given: ED-B binding domain, linkers, tags, part only)
fusion protein, part: B1 fusion protein, part with L9I, Y15A, K22F, E39A, A40Q
B12: 215652 (designed binder, part only; not given: ED-B binding domain, linkers, tags, part only)
fusion protein, part: B1 fusion protein, part with V31I, E39A, A40Q
B13: 219087 (designed binder, part only; not given: ED-B binding domain, linkers, tags, part only)
fusion protein, part: LAEAKVLALKELDKYGISNYYKNLINNAKTVEGVKALKEAIVAALP
modifications: also: fusion protein, linkers and tags not given here
B14: 221191 (designed binder, part only; not given: FAP binding domain, linkers, tags, part only)
fusion protein, part: B1 fusion protein, part
B15: 221215 (designed binder, part only; not given: FAP binding domain, linkers, tags, part only)
fusion protein, part: B1 fusion protein, part with V31I, E39D, A40E
B16: 215659 (designed binder, part only; not given: ED-B binding domain, linkers, tags, part only)
fusion protein, part: B1 fusion protein, part with V31I, K35E, E39A, A40Q
B17: 215035 (designed binder, part only; not given: ED-B binding domain, linkers, tags, part only)
fusion protein, part: LAEAKVLAIKELDKAGISDYYFNLINNAKTVEGVKALKAQIVAA
B18: 215052 (designed binder, part only; not given: ED-B binding domain, linkers, tags, part only)
fusion protein, part: B17 fusion protein, part with D19N, A36D
B19: 215037 (designed binder, part only; not given: ED-B binding domain, linkers, tags, part only)
fusion protein, part: B17 fusion protein, part with E32D
B20: 215039 (designed binder, part only; not given: ED-B binding domain, linkers, tags, part only)
fusion protein, part: B17 fusion protein, part with V31I
B21: 215055 (designed binder, part only; not given: ED-B binding domain, linkers, tags, part only)
fusion protein, part: B17 fusion protein, part with D19N, V31I
B22: ED-B specific fusion protein 219087 DOTA Lu (designed binder, part only; not given: ED-B binding domain, linker, part only)
chain, part: B13 fusion protein, part
modifications: also: DOTA coupled, site not given here, Lu loaded

Where a chain is given by its changes, count along the chain named. Where no end group is shown, it is not given here.

In US20250388696A1 one finds Kd data, which are given here for 22 molecules.

mouse serum albumin (mouse), sequence (P07724 25-608 limits assumed): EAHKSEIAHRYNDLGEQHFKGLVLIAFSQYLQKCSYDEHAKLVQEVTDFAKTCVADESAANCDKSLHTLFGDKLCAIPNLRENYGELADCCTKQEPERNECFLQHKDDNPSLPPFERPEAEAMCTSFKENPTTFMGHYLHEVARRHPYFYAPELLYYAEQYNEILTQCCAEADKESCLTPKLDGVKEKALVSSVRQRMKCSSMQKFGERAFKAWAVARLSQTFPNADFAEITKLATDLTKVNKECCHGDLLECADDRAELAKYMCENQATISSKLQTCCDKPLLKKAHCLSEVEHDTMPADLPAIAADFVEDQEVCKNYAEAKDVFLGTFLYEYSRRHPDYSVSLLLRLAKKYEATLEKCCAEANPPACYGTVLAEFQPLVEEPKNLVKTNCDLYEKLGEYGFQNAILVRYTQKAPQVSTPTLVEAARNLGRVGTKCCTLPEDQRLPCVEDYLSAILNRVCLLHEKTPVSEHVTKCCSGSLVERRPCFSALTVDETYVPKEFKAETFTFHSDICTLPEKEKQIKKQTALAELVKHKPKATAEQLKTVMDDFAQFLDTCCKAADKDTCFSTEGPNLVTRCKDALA

One experiment deals with extra domain B of oncofetal human fibronectin (ED-B) (human) (UniProt P02751). Put plainly: SPR, ED-B immobilised on the chip, pH 7.3, 1:1 Langmuir fit. For orientation: In SPR one partner is held on a chip, and binding of the other changes the refractive index at the surface.
extra domain B of oncofetal human fibronectin (ED-B) (human), sequence (P02751 1266-1356 limits assumed): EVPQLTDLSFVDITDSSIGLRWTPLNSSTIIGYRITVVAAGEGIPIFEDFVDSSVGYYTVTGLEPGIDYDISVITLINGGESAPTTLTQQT
For orientation: Kd means the free concentration of one partner at which half of the binding sites on the other are occupied at equilibrium, for simple one-to-one binding. A lower Kd goes with higher affinity. B1 yielded a Kd of 0.1 nM.

The molecule B2 registered a Kd of 0.6 nM.

In the case of B3, the Kd is 0.1 nM.

In turn, B4 came in with a Kd of 0.7 nM.

As to B5, the Kd worked out at 0.2 nM.

On to B6, for which the Kd is 0.1 nM.

In turn, B7 came in with a Kd of 0.4 nM.

As to B8, the Kd was 0.1 nM.

Molecule B9 came in with a dissociation constant Kd of 0.1 nM.

In turn, B10 returned a Kd of 0.1 nM.

As for B11, the Kd came to 0.3 nM.

As for B12, the Kd came out at 0.4 nM.

B13 returned a dissociation constant Kd of 0.2 nM.

The target in a further experiment is human serum albumin (human) (UniProt P02768). Put plainly: SPR, HSA immobilised on the chip, pH 7.3, 1:1 Langmuir fit.
human serum albumin (human), sequence (P02768 25-609 limits assumed): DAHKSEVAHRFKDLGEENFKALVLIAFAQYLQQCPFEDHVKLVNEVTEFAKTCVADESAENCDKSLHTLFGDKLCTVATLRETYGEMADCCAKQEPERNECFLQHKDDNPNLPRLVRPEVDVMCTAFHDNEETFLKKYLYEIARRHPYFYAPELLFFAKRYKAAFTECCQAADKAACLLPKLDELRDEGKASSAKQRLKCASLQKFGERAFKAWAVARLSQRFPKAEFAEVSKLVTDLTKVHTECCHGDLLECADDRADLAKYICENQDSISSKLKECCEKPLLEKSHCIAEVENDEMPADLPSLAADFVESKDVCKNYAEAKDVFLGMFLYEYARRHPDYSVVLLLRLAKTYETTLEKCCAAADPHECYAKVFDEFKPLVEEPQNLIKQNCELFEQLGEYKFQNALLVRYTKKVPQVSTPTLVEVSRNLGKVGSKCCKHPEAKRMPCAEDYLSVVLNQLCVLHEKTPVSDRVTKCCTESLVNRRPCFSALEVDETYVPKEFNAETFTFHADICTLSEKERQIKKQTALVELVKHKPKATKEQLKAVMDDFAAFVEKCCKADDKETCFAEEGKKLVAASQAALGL
In the case of B14, the Kd worked out at 3.8 nM.

With B1, the dissociation constant Kd came out at 1.5 nM.

In turn, B2 registered a Kd of 1.1 nM.

In turn, B3 had a Kd of 5 nM.

B4 returned a Kd of 3.4 nM.

B5 displayed a Kd of 2.6 nM.

On to B6, for which the dissociation constant Kd came out at 7.3 nM.

Molecule B15 gave a Kd of 7.9 nM.

Consider B16, for which the Kd turned out to be 13.4 nM.

With B7, the Kd amounted to 3.8 nM.

In turn, B8 returned a Kd of 3.3 nM.

Molecule B9 displayed a dissociation constant (Kd) of 3 nM.

As to B10, the Kd stood at 0.8 nM.

With B17, the Kd came to 2.4 nM.

B18 returned a Kd of 7.9 nM.

Regarding B19, the Kd was 19.9 nM.

Take B20: the Kd came to 2.2 nM.

B21 gave a Kd of 1.7 nM.

For B11, the equilibrium dissociation constant (Kd) worked out at 12.5 nM.

The molecule B12 showed a dissociation constant Kd of 4.1 nM.

Molecule B13 showed a dissociation constant (Kd) of 1.4 nM.

The next experiment concerns the target mouse serum albumin (mouse) (UniProt P07724). Put plainly: SPR.
Regarding B22, the Kd stood at 1.3 nM.

The next experiment has as its target human serum albumin (human) (UniProt P02768). Put plainly: SPR.
As to B22, the Kd turned out to be 1.3 nM.

For a further experiment, the target named is extra domain B of oncofetal human fibronectin (ED-B) (human) (UniProt P02751). Put plainly: SPR.
Turning to B22, the Kd was less than 1 nM.

In another experiment the target is hFAP-Fc (human) (UniProt Q12884). Put plainly: SPR, Fc-tagged FAP captured on immobilised protein A, pH 7.3, 1:1 Langmuir fit.
hFAP-Fc (human), sequence (Q12884 26-760 limits assumed): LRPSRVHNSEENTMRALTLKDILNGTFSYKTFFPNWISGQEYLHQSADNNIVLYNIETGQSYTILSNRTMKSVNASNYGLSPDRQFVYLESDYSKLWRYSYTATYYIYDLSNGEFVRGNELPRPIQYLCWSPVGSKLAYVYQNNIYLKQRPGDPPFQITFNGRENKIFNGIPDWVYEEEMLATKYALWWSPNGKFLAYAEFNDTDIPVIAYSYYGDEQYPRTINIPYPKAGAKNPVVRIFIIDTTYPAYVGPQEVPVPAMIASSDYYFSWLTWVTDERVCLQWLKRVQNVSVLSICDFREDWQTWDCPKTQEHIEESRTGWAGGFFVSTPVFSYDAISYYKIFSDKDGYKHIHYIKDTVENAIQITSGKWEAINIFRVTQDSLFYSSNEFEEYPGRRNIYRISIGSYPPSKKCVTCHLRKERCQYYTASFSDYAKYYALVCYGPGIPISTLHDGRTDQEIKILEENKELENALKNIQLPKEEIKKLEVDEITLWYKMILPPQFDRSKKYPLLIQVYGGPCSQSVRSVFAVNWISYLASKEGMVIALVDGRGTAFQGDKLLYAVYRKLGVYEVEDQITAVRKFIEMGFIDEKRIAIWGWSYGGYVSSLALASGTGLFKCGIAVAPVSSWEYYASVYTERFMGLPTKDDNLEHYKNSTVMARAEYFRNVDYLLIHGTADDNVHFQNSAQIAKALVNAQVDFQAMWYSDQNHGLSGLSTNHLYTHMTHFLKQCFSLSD
Regarding B14, the Kd is 3.8 nM.

Take B15: the Kd came out at 8 nM.
